Experimental data from patent publication US20250346904A1, “CCR5 and CD4 siRNA-TARGETED PHOSPHOLIPID NANOSOMES THERAPEUTICS FOR TREATMENT OF HIV-1 AND OTHER DISEASES” (priority 2024, published 2025).

Experiments:
[1] = system: HIV-1RF virus (NIH ARP Cat #2804, dual-tropic); assay: Knockdown by BFU assay on P4/R5 cells, HIV-1RF, log dilutions (RNA-I-47); type: cell-based; details: Human immunodeficiency virus 1, P4/R5, each drug as part of the Raltegravir + Efavirenz cocktail, read-out: Inhibitory Dose 50 (ID50) of the cocktail
Method: MAGI P4/R5 cells carry the β-galactosidase gene under control of the HIV LTRs (Long Terminal Repeats). […] Briefly, 96 well plates of MAGI P4/R5 cells were infected with HIV-1 and fixed 2-3 days post infection with a fixative containing 1% formaldehyde and 0.2% glutaraldehyde. Fixed cells were washed with PBS (Phosphate Buffered Saline) and stained for β-galactosidase activity using X-gal at 1 mg/mL in PBS with 5 mM potassium ferricyanide and 5 mM potassium ferrocyanide as per published procedures. The cells were usually stained 3 hours to overnight, the number of blue foci counted under the microscope and reported as Blue Focus-forming Units (BFUs).
In this study (RNA-I-47), 8 siRNA nanosomal formulations and 2 controls were evaluated for HIV-1 inhibition on P4/R5 cells using the BFU assay. The test formulations were the same 3 CD4_siRNAs, 3 CCR5_siRNAs, RANTES protein alone and RANTES protein co-encapsulated with a CCR5_siRNA in phospholipid nanosomes, tested previously in RNA-I-50b and RNA-I-51. The HIV-1 virus used was NIH ARP Cat #2804, a member of a panel HIV-1RF viruses and is dual-tropic with the ability to infect both CCR5 and CXCR4 receptor expressing cells.
This study was similar to the previous studies with a few differences. […]

HIV-1 RF, NIH Cat #2804 = assay: Knockdown by BFU assay, HIV-1 RF, with and without lipofectamine (RNA-I-61); type: cell-based; details: Naked (unencapsulated), Presence of Lipofectamine
Method: A knockdown study (RNA-I-61) of the 8 nanoencapsulated and the corresponding unencapsulated (naked) siRNA preparations along with two controls described in the previous experiments was performed using freshly reconstituted materials with HIV-1 RF, NIH Cat #2804, diluted to contain ˜100 Blue Focus forming Units (BFUs) per dose of inoculum. […] The objective of this experiment was to test a range of concentrations of the inhibitors to determine the ID50 for each preparation based on the siRNA content. Since the nanosomal materials were freshly reconstituted, they were recharacterized.
The reconstituted samples as well as the naked siRNA preparations were tested for virus infection inhibitory activity. The inhibition of infectivity was measured by counting the number of blue foci due to the induced B-galactosidase activity in the host MAGI P4/R5 cells by the infecting HIV. […] The number of BFUs for each treatment at various dilutions were used to calculate the % inhibition from the corresponding dilution for the Negative_siRNA samples. The inhibitor activity was also quantified by measuring the p24 antigen concentration in each of the wells.
Infectivity Assay by BFUs: The percent inhibitions obtained with various Nanosomal_siRNA formulations versus Negative_siRNA formulations in the presence of lipofectamine are listed in Table 12.
50% Inhibitory Dose (ID50) Values: The data from RNA quantification using gel analysis and the infectivity results were used to plot dose response curves and calculate the ID50 (a.k.a. Inhibitory Concentration that results in 50% inhibition, [IC50]) values.

Molecule	IC50 [1] [nM]	Inhibition of BFUs by Naked_siRNA vs Negative_siRNA (HIV-1 RF, NIH Cat #2804; treatment dilution 1) [%]	Inhibition of BFUs by Naked_siRNA vs Negative_siRNA (HIV-1 RF, NIH Cat #2804; treatment dilution 5) [%]	Inhibition of BFUs by Naked_siRNA vs Negative_siRNA (HIV-1 RF, NIH Cat #2804; treatment dilution 15) [%]	Inhibition of BFUs by Naked_siRNA vs Negative_siRNA (HIV-1 RF, NIH Cat #2804; treatment dilution 45) [%]	Inhibition of BFUs by Naked_siRNA vs Negative_siRNA (HIV-1 RF, NIH Cat #2804; treatment dilution 135) [%]
O=C1Nc2ccc(Cl)cc2[C@@](C#CC2CC2)(C(F)(F)F)O1 [Efavirenz]	0.16					
RANTES: CCL5, a CC chemokine with a molecular weight of 7,900, natural ligand of CCR5; unencapsulated in Table 13 (protein, UniProt P13501 24-91, looked up, ends and bridges not checked) C-C motif chemokine 5: SPYSSDTTPCCFAYIARPLPRAHIKEYFYTSGKCSNPAVVFVTRKNRQVCANPEKKWVREYINSLEMS		0	34	18	0	0
